Measured values taken from patent US20010046966, “Inhibition of adipogenesis” (published 2001).

B1: specific GATA competitor (dsDNA)
DNA 1: GATCTCCGGCAACTGATAAGGATTCCCTG
DNA 2: CAGGGAATCCTTATCAGTTGCCGGAGATC
B2: non-specific competitor (dsDNA)
DNA 1: GATCGAACTGACCGCCCGCGGCCCGT
DNA 2: ACGGGCCGCGGGCGGTCAGTTCGATC

How the values were obtained:
GATA-3 [1] = molecular target: T1, GATA-3 (UniProt P23772 P23772:1-443); assay: competition; 1 ug competitor competed complex; conditions: tags: GST fusion
Description: (§1) FIG. 5B is a photograph of an electrophoretic gel showing the results of an mobility shift assay. Based on the result of Dnase I footprinting, two double stranded DNA fragment (nucleotide −199 to −85 and nucleotide −22 to +9, respectively) were end-labeled with 32P and electrophoretic mobility shift assays were performed with GST-GATA-2 or GST-GATA-3. For each protein-DNA reaction, specific (S) or non-specific (N) DNA competitors were also included in the experiments.
(§2) After confirming the requirement for GATA DNA-binding activity, experiments were carried out to determine whether this activity requires direct interaction with the PPAR-gamma 2 promoter. The proximal PPAR-gamma 2 promoter region was evaluated by deletion analysis. […] To determine if and at what sites GATA factors directly interact with DNA on this fragment, DNase I footprinting experiments were carried out (FIG. 5A) combined with elecrophoretic mobility shift assays (FIG. 5B) using recombinant GATA-2 and GATA-3 fusion proteins. The electrophoretic mobility shift assays were performed in 20 ul reaction volume. 2 ul GST-GATA fusion protein was incubated with 0.5 ug poly[d(I-C)] and ³²p labeled DNA probe (4×10⁴ cpm) in the presence or absence of 1 ug of specific or non-specific competitors, at room temperature for 20 min. […]

GATA-2 [2] = molecular target: T2, GATA-2 (UniProt O09100 O09100:1-480); assay: competition; 1 ug competitor competed complex; conditions: tags: GST fusion (pGEX-2T)
T2 sequence (O09100 whole entry, the tested form may be a part, one chain of several): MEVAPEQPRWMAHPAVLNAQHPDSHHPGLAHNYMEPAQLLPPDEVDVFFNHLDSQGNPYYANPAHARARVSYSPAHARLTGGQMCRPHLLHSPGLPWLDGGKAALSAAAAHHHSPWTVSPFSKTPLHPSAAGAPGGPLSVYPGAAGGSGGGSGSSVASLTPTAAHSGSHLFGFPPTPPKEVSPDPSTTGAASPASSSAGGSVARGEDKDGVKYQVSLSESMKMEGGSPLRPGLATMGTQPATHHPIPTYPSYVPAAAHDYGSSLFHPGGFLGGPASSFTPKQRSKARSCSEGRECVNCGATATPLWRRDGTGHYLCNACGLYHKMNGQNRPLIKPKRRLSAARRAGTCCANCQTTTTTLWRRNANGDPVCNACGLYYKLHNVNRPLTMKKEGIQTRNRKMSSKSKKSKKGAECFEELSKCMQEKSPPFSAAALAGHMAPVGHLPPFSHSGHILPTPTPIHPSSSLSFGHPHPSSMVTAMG
Description: as §1, §2

GATA-3 [3] = molecular target: T1, GATA-3; assay: competition; 1 ug, no competition; conditions: tags: GST fusion
Description: as §1, §2

GATA-2 [4] = molecular target: T2, GATA-2; assay: competition; 1 ug, no competition; conditions: tags: GST fusion (pGEX-2T)
Description: as §1, §2

T1 sequence (P23772 whole entry, the tested form may be a part, one chain of several): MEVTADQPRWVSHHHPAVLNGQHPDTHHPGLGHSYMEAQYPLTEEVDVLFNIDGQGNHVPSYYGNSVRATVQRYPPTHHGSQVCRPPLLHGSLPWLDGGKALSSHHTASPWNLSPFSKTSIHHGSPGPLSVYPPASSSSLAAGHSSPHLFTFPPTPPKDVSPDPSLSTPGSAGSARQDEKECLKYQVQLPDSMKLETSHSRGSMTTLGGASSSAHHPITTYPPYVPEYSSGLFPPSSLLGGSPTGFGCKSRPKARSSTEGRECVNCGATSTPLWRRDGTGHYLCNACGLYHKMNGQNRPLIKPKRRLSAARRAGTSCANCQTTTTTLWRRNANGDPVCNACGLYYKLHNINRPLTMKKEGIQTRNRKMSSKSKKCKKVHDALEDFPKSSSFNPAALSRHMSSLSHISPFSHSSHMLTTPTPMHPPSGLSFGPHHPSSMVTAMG

Binder | binding result (GATA-3 [1]) | binding result (GATA-2 [2]) | binding result (GATA-3 [3]) | binding result (GATA-2 [4])
B1 | binds | binds | – | –
B2 | – | – | no binding | no binding
